These results are taken from patent US20140371142A1 (Johns Hopkins, published 2014).

The labels stand for the following.
B1: HA epitope-tagged CTRP10 (other, mouse)
chain: HYEMLGTCRMICDPYSVAPAGGPAGAKAPPPGPSTAALEVMQDLSANPPPPFIQGPKGDPGRPGKPGPRGPPGEPGPPGPRGPPGEKGDSGRPGLPGLQLTTSAAGGVGVVSGGTGGGGDTEGEVTSALSAAFSGPKIAFYVGLKSPHEGYEVLKFDDVVTNLGNHYDPTTGKFSCQVRGIYFFTYHILMRGGDGTSMWADLCKNGQVRASAIAQDADQNYDYASNSVVLHLDSGDEVYVKLDGGKAHGGNNNKYSTFSGFLLYPDYPYDVPDYA
notes: Co-expressed with FLAG-tagged myonectin in HEK 293T cells; supernatants were used for immunoprecipitation
B2: HA epitope-tagged CTRP5 (other, mouse)
chain: SPPLDDNKIPSLCPGQPGLPGTPGHHGSQGLPGRDGRDGRDGAPGAPGEKGEGGRPGLPGPRGEPGPRGEAGPMGAIGPAGECSVPPRSAFSAKRSESRVPPPADTPLPFDRVLLNEQGHYDPTTGKFTCQVPGVYYFAVHATVYRASLQFDLVKNGQSIASFFQYFGGWPKPASLSGGAMVRLEPEDQVWVQVGVGDYIGIYASIKTDSTFSGFLVYSDWHSSPVFAYPYDVPDYA
notes: as for B1
B3: FLAG epitope-tagged mouse myonectin (CTRP15) (ligand)
chain: LGVPESAEPVGTHARPQPPGAELPAPPANSPPEPTIAHAHSVDPRDAWMLFVKQSDKGINSKRRSKARRLKLGLPGPPGPPGPQGPPGPFIPSEVLLKEFQLLLKGAVRQRESHLEHCTRDLTTPASGSPSRVPAAQELDSQDPGALLALLAATLAQGPRAPRVEAAFHCRLRRDVQVDRRALHELGIYYLPEVEGAFHRGPGLNLTSGQYTAPVAGFYALAATLHVALTEQPRKGPTRPRDRLRLLICIQSLCQHNASLETVMGLENSSELFTISVNGVLYLQAGHYTSVFLDNASGSSLTVRSGSHFSAILLGLDYKDDDDK
modifications: N-linked glycans (sites not given)
notes: Secreted into the supernatant of transfected HEK 293T cells; Disulfide-linked dimer on a non-reducing gel and multimeric on a native gel; also called FLAG-tagged myonectin; recombinant myonectin
B4: HA epitope-tagged CTRP2 (other, mouse)
chain: DPMLGAFARRDFQKGGPQLVCSLPGPQGPPGPPGAPGSSGVVGRMGFPGKDGQDGQDGDRGDSGEEGPPGRTGNRGKQGPKGKAGAIGRAGPRGPKGVSGTPGKHGTPGKKGPKGKKGEPGLPGPCSCGSSRAKSAFSVAVTKSYPRERLPIKFDKILMNEGGHYNASSGKFVCSVPGIYYFTYDITLANKHLAIGLVHNGQYRIRTFDANTGNHDVASGSTILALKEGDEVWLQIFYSEQNGLFYDPYWTDSLFTGFLIYADQGDPNEVYPYDVPDYA
notes: as for B1

For data set [1], the target named is B3. As to the kind of experiment: co-expression in HEK 293T cells, immunoprecipitation then immunoblot of supernatants (FLAG / HA tags).
Data set [2] concerns the molecule itself. As to the kind of experiment: native gel immunoblot, FIG. 4 legend (self-association). On the procedure: Native gel electrophoresis. Non-denaturing, non-reducing gel electrophoresis was carried out as previously described (PLoS One, 5: e12765).
Myonectin (CTRP15) protein forms disulfide-linked oligomers and heteromeric complexes with other CTRPs. Consistent with the presence of a signal peptide, myonectin was robustly secreted into the conditioned medium when expressed in vitro (FIG. 4A). Secreted myonectin contains N-linked glycans; treatment with PNGase F (an N-glycosidase) reduced the apparent molecular weight of myonectin on immunoblot (FIG. 4B), confirming that one or more of the conserved Asn residues are glycosylated. In the absence of reducing agent (β-ME), myonectin migrated as a dimer on immunoblot (FIG. 4C), indicating the presence of intermolecular disulfide bond. […] Formation of oligomers is a biochemical feature shared by all CTRPs and proteins of the C1q family. […] Similarly, when co-expressed in mammalian cells (HEK 293T), myonectin formed heteromeric complexes with CTRP2 and CTRP12, and, to a lesser extent, with CTRP5 and CTRP10 (FIG. 4E).

B1: in data set [1], the binding result is on record as “binds”.
The same measure, in the same setting: with B2 the entry was “binds”.
As for B3, the binding result in data set [2] is given as “binds”.
As for B4, the binding result in data set [1] is given as “binds”.
